# B1: recombinant mouse FcγRIV (receptor)
# chain: GLQKAVVNLDPKWVRVLEEDSVTLRCQGTFSPEDNSIKWFHNESLIPHQDANYVIQSARVKDSGMYRCQTALSTISDPVQLEVHMGWLLLQTTKWLFQEGDPIHLRCHSWQNRPVRKVTYLQNGKGKKYFHENSELLIPKATHNDSGSYFCRGLIGHNNKSSASFRISLGDPGSPSMFPPWHQ
# Target: mAb1 wild-type (monoclonal antibody IgG1) (human)
# Experiment: SPR
binder,measurement,value
B1,% of maximal binding response of wild-type antibody,100%

# Reference: PMC7531572
